Assay [1] concerns the target hKGF receptor on the surface of PC-3 prostatic carcinoma cells (UniProt P21802). Kind of assay: saturation binding of 125I-hKGF on PC-3 cells, Scatchard analysis.
Assay [2] concerns the target human KGF receptor on transfected NIH3T3 cells (NIH3T3/FGFR-2) (human) (UniProt P21802). Kind of assay: competition of unlabeled hKGF with 125I-hKGF for binding to NIH3T3/FGFR-2 cells, with 1 ug/ml heparin.
In assay [3] the target is hKGF receptor on the surface of PC-3 prostatic carcinoma cells (UniProt P21802). Kind of assay: competition of unlabeled hKGF with 125I-hKGF for binding to PC-3 cells.
Assay [4] has the same target. Kind of assay: value used to calculate Ki from IC50 in the PC-3 cell assay (FIG. 12 legend).
The target is the same in assay [5]. Kind of assay: competition of unlabeled hKGF with 125I-hKGF for binding to PC-3 cells, full competition curve.

One may read the Kd as the equilibrium constant for the complex coming apart. What is called Ki is the dissociation constant of the complex between target and ligand, obtained from inhibition or displacement. For orientation: IC50 means the concentration that inhibits the measured activity by half.

B1: Recombinant human Keratinocyte Growth Factor (hKGF) (ligand, UniProt P21781 32-194, looked up)
chain: CNDMTPEQMATNVNCSSPERHTRSYDYMEGGDIRVRRLFCRTQWYLRIDKRGKVKGTQEMKNNYNIMEIRTVAVGIVAIKGVESEFYLAMNKEGKLYAKKECNEDCNFKELILENHYNTYASAKWTHNGGEMFVALNQKGIPVRGKKTKKEQKTAHFLPMAIT
As to B1, the dissociation constant Kd was 0.1 to 0.2 nM in assay [1] and 0.15 nM in assay [4]. Moreover, the Ki in assay [2] worked out at 0.034 nM; in assay [5], 7.7 nM. The molecule further registered a half-maximal inhibitory concentration (IC50) in assay [3] of 70 nM.

(Values after patent US20030180744A1.)
